The values below come from publication PMC8352894, “A KLK4 proteinase substrate capture approach to antagonize PAR1” (Scientific Reports, 2021).

In one test the target is T1, KLK4_(S207A) (human, UniProt Q9Y5K2 31-254, S207A).
T1 construct: Kallikrein-related peptidase 4 (KLK4), human, UniProtKB Q9Y5K2; peptidase domain left after thermolysin removed the pro-peptide S27CSQ30 (begins at residue 31); S207 is Ser195 in chymotrypsin numbering; also called KLK_(S207); not shown: FLAG, N-terminal, cleaved
Briefly: SPR; ProteOn XPR36; biotinylated PAR1 peptide immobilised on an NLC chip via NeutrAvidin-biotin (2600 RU); KLK4 variants flowed over in PBST at 30 µL/min for 818 s, dissociation 30 min (166 min for KLK4 S207A,L185D); 25 °C; empty channel subtracted; 1:1 Langmuir kinetic model. The settings on record: both partners purified. On the technique in general: Surface plasmon resonance follows binding to a sensor surface in real time, without labels.

For the next test, the target named is T2, KLK4_(S207A,L185D) (human, UniProt Q9Y5K2 31-254, S207A | L185D).
T2 construct: Kallikrein-related peptidase 4 (KLK4), human, UniProtKB Q9Y5K2; peptidase domain left after thermolysin removed the pro-peptide S27CSQ30 (begins at residue 31); L185D chosen by in-silico saturation mutagenesis; also called KLK4_(L185D,S207A); KLK_(S207,L185D); not shown: FLAG, N-terminal, cleaved
Described as above. Conditions: both partners purified.

Primed or numbered codes have the meaning given here. The star is where a group is joined. Biotin = O=C1N[C@H]2[C@H](CS[C@H]2CCCCC(=O)*)N1; FITC′ = not defined here

T2 sequence (Q9Y5K2 31-254 L185D/S207A): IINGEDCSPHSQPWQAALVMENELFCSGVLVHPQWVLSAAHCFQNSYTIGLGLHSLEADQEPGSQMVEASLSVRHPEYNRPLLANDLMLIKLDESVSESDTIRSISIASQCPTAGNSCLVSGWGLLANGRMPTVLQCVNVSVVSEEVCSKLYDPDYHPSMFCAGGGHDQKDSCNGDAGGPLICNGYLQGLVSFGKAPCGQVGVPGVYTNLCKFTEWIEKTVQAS
T1 sequence (Q9Y5K2 31-254 S207A): as the sequence (Q9Y5K2 31-254 L185D/S207A) above, with D155L counted along it

B1: biotinylated PAR1 peptide (biotin-31SKATNATLDPRSFLLRNPNDKYEPFWED58-FITC) (peptide)
peptide: Biotin-SKATNATLDPRSFLLRNPNDKYEPFWED-{FITC′}
notes: also called PAR1 extracellular peptide; source: synthetic peptide, bought: Peptron, Daejeon, Korea (>95%)
In the case of B1, in the test with KLK4_(S207A), the Kd was found to be 1120 nM, the koff amounted to 0.000391 s⁻¹ and the kon was found to be 349 M⁻¹ s⁻¹. In the test with KLK4_(S207A,L185D), this molecule showed a Kd of 55.5 nM, a koff of 3.17e-06 s⁻¹ and a kon of 57 M⁻¹ s⁻¹.

In general, Kd refers to the constant that tells how readily two partners part at equilibrium. A lower Kd goes with higher affinity. Broadly, the koff is a measure of how fast the partners let go of each other. By kon is commonly meant the rate constant with which the complex forms.
